This is an account of results in patent US11034762 (CENTIVAX, dated 2021).

Experiment [1] concerns the target SARS-CoV-2 Receptor Binding Domain (RBD) protein (SARS-CoV-2, UniProt P0DTC2 319-541).
Experiment [2] has as its target T1, SARS-CoV-1 Receptor Binding Domain (RBD) protein (SARS-CoV-1, UniProt P59594 306-527).
T1 construct: also called SARS1
In words: SPR; clone listed as COV2 only at the 21st table, row 65, column 3.

The target of experiment [3] is T2, MERS Receptor Binding Domain (RBD) protein (MERS virus, UniProt K9N5Q8 367-606).
T2 construct: also called Middle East Respiratory Syndrome (MERS) virus
T2 sequence: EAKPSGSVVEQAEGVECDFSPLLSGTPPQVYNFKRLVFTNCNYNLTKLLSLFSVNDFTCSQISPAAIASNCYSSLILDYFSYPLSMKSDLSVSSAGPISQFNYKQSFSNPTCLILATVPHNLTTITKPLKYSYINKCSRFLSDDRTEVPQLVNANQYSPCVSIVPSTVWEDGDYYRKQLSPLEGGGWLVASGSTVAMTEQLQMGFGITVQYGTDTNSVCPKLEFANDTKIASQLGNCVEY
The experiment is described as above.

Experiment [4] addresses T1, SARS-CoV-1 Receptor Binding Domain …. The experiment in a line: SPR; clone listed as COV2 only at the 21st table, row 64, column 3. On the technique in general: SPR reads the build-up and loss of mass on a sensor chip optically.
The target in experiment [5] is T2, MERS Receptor Binding Domain (RBD) …. The description is as above.
Experiment [6] has as its target T1, SARS-CoV-1 Receptor Binding Domain …. In words: SPR; clone listed as COV2 only at the 21st table, row 63, column 3.
Experiment [7] has as its target T2, MERS Receptor Binding Domain (RBD) …. The description is as above.
Experiment [8] concerns the target T1, SARS-CoV-1 Receptor Binding Domain …. In words: SPR; clone listed as COV2 only at the 21st table, row 13, column 3.
The target of experiment [9] is T2, MERS Receptor Binding Domain (RBD) …. Described as above.
Experiment [10] has as its target T1, SARS-CoV-1 Receptor Binding Domain …. The experiment in a line: SPR; clone listed as COV2 only at the 21st table, row 57, column 3.
Experiment [11] deals with T2, MERS Receptor Binding Domain (RBD) …. The description is as above.
For experiment [12], the target named is T1, SARS-CoV-1 Receptor Binding Domain …. In words: SPR; clone listed as COV2 only at the 21st table, row 60, column 3.
The target in experiment [13] is T2, MERS Receptor Binding Domain (RBD) …. Described as above.
For experiment [14], the target named is T1, SARS-CoV-1 Receptor Binding Domain …. In words: SPR; clone listed as COV2 only at the 21st table, row 58, column 3.
In experiment [15] the target is T2, MERS Receptor Binding Domain (RBD) …. The description is as above.
Experiment [16] concerns the target T1, SARS-CoV-1 Receptor Binding Domain …. In words: SPR; clone listed as COV2 only at the 21st table, row 12, column 3.
Experiment [17] concerns the target T2, MERS Receptor Binding Domain (RBD) …. The experiment is described as above.
Experiment [18] concerns the target T1, SARS-CoV-1 Receptor Binding Domain …. In words: SPR; clone listed as COV2 only at the 21st table, row 59, column 3.
The target of experiment [19] is T2, MERS Receptor Binding Domain (RBD) …. The description is as above.
In experiment [20] the target is T1, SARS-CoV-1 Receptor Binding Domain …. In words: SPR; clone listed as COV2 only at the 21st table, row 56, column 3.
For experiment [21], the target named is T2, MERS Receptor Binding Domain (RBD) …. Described as above.
Experiment [22] deals with T1, SARS-CoV-1 Receptor Binding Domain …. The experiment in a line: SPR; clone listed as COV2 only at the 21st table, row 61, column 3.
In experiment [23] the target is T2, MERS Receptor Binding Domain (RBD) …. Described as above.

A word on the Kd: it is the constant that tells how readily two partners part at equilibrium. The term koff denotes a measure of how fast the partners let go of each other. High values mean fast dissociation, low ones slow dissociation. By kon is commonly meant a measure of how fast the partners come together. A lower kon goes with slower complex formation.

B1: COVID19_P21_H03 (scFv, V domains shown)
VH: QVQLVQSGAEVKKPGSSVKVSCKASGYTFTNYGINWVRQAPGQGLEWMGWMNPYSGNTGYAQKFQGRVTITADESTSTAYMELSSLRSEDTAVYYCAVLSGISTPMDVWGQGTLVTVSS
VL: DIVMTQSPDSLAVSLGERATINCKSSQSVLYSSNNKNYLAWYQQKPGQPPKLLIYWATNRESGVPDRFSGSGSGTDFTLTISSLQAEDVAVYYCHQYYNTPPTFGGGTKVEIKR
With B1, in [1], binding was characterised by a dissociation constant (Kd) of 11.6 nM, the koff was 0.00113 s⁻¹ and the kon was 97200 M⁻¹ s⁻¹. The binding result in experiment [2] is recorded as “no binding (tested: up to 300 nM)”. Moreover, the binding result in [3] was “no binding (tested: up to 300 nM)”.

B2: COVID19_P21_E04 (scFv, V domains shown)
VH: QVQLVQSGAEVKKPGSSVKVSCKASGYTFTNYGINWMRQAPGQGLEWMGWMNPNSGNTGYAQKFQGRVTITADESTSTAYMELSSLRSEDTAVYYCAGGSGISTPMDVWGQGTLVTVSS
VL: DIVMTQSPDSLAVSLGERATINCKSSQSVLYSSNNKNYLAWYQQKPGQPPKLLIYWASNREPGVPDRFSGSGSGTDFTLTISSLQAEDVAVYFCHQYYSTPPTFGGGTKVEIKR
For the molecule B2, in [1], the Kd was 2.15 nM, the koff amounted to 0.000588 s⁻¹ and the kon turned out to be 273000 M⁻¹ s⁻¹. For the same molecule, in experiment [4], the binding result is “no binding (tested: up to 300 nM)”. Also, the binding result in [5] is “no binding (tested: up to 300 nM)”.

B3: COVID19_P21_B02 (scFv, V domains shown)
VH: QVQLVQSGAEVKKPGSSVKVSCKASGYTFTNYGINWVRQAPGQGLEWMGWMNPNSGNTGYAQKFQGRVTITADESTSTAYMELSSLRSEDTAVYYCAAVSGISTPMDVWGQGTLVTVSS
VL: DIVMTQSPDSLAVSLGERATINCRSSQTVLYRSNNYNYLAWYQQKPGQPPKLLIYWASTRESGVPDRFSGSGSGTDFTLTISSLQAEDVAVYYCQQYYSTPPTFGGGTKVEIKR
As for B3, in experiment [1], the Kd was found to be 45.5 nM, the koff worked out at 0.0127 s⁻¹ and the kon was found to be 278000 M⁻¹ s⁻¹. Also, the binding result in experiment [6] is listed as “no binding (tested: up to 300 nM)”. The binding result in [7] is given as “no binding (tested: up to 300 nM)”.

B4: COVID19_P21_E12 (scFv, V domains shown)
VH: QVQLVQSGAEVKKPGSSVKVSCKASGGTFISYAISWVRQAPGQGLEWMGGIIPTLGTYNYAQKFQGRVTITADESTSTAYMELSSLRSEDTAVYYCAGSWGISTPMDVWGQGTLVTVSS
VL: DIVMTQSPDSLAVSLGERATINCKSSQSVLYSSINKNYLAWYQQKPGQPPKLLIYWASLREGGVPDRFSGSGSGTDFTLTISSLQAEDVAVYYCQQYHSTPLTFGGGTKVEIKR
notes: also called COVID19_P21_El2
Turning to B4, in experiment [1], binding was put at a Kd of 8.82 nM, the koff is 0.000586 s⁻¹ and the kon was determined as 66500 M⁻¹ s⁻¹. Moreover, in [8], the binding result was “no binding (tested: up to 300 nM)”. Also, in experiment [9], the binding result is recorded as “no binding (tested: up to 300 nM)”.

B5: COVID19_P09_C05 (scFv, V domains shown)
VH: QVQLVQSGAEVKKPGSSVKVSCKASGYSFSDYYIHWVRQAPGQGLEWMGWIDPNSGGTNYAQKFQGRVTITADESTSTAYMELSSLRSEDTAVYYCAGGSGISTPMDVWGQGTLVTVSS
VL: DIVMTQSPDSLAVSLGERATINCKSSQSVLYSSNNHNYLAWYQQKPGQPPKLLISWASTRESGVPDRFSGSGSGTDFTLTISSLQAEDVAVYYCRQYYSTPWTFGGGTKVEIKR
Regarding B5, in [1], the Kd turned out to be 1.18 nM, the koff was determined as 0.000185 s⁻¹ and the kon was 157000 M⁻¹ s⁻¹. Further, the binding result in [10] was “no binding (tested: up to 300 nM)”. In addition, the binding result in experiment [11] was “no binding (tested: up to 300 nM)”.

B6: COVID19_P10_A09 (scFv, V domains shown)
VH: QVQLVQSGAEVKKPGSSVKVSCKASGYTFTDYYIHWVRQAPGQGLEWMGWMNPNSGNTGYAQNFQGRVTITADESTSTAYMELSSLRSEDTAVYYCAGGSGISTAWDVWGQGTLVTVSS
VL: DIVMTQSPDSLAVSLGERATIRCTSSLSLQDRSNNKNYLTWYQQKPGQPPKLLIYWASTRESGVPDRFSGSGSGTDFTLTISSLQAEDVAVYYCQQHYSAPLTFGGGTKVEIKR
In [1], B6 had a Kd of 20.5 nM, a koff of 0.00112 s⁻¹ and a kon of 54800 M⁻¹ s⁻¹. Moreover, the binding result in [12] is recorded as “no binding (tested: up to 300 nM)”. Besides, the binding result in experiment [13] was “no binding (tested: up to 300 nM)”.

B7: COVID19_P09_B10 (scFv, V domains shown)
VH: QVQLVQSGAEVKKPGSSVKVSCKASGYSFTDYHIHWVRQAPGQGLEWMAMIVPRGGSTTYAQKFQGRVTITADESTSTAYMELSSLRSEDTAVYYCAGGSGISTPMDVWGQGTLVTVSS
VL: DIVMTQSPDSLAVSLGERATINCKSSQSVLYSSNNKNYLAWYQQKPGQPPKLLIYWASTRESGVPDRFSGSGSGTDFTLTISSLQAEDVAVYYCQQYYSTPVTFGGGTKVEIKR
In experiment [1], B7 yielded a Kd of 39.7 nM, a koff of 0.00323 s⁻¹ and a kon of 81400 M⁻¹ s⁻¹. For the same molecule, the binding result in experiment [14] is listed as “no binding (tested: up to 300 nM)”. Also, the binding result in [15] is recorded as “no binding (tested: up to 300 nM)”.

B8: COVID19_P22_H10 (scFv, V domains shown)
VH: QVQLVQSGAEVKKPGSSVKVSCKASGGGFSTYWIGWVRQAPGQGLEWVGWINPNSGATKYAQKFQGRVTITADESTSTAYMELSSLRSEDTAVYYCAGGSGISTPMDVWGQGTLVTVSS
VL: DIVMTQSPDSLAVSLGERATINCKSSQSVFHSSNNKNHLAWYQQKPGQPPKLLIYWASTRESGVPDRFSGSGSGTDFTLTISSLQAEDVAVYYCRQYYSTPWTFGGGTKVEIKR
Consider B8, for which, in experiment [1], the affinity, expressed as Kd, was 7.59 nM; the koff is 0.00057 s⁻¹; the kon came to 75000 M⁻¹ s⁻¹. The binding result in [16] is “no binding (tested: up to 300 nM)”. Besides, the binding result in [17] is “no binding (tested: up to 300 nM)”.

B9: COVID19_P21_B01 (scFv, V domains shown)
VH: QVQLVQSGAEVKKPGSSVKVSCKASGYTFSTYWIGWVRQAPGQGLEWMGWIDPNSGGTNYAQKFQGRVTITADESTSTAYMELSSLRSEDTAVYYCAGGSGISTPMDVWGQGTLVTVSS
VL: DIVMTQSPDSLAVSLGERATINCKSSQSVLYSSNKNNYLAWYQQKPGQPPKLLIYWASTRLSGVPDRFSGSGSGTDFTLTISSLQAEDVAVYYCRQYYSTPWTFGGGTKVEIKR
As to B9, in experiment [1], the Kd was found to be 0.91 nM, the koff came to 5.7e-05 s⁻¹ and the kon came out at 62400 M⁻¹ s⁻¹. Also, the binding result in [18] is given as “no binding (tested: up to 300 nM)”. For the same molecule, the binding result in experiment [19] is “no binding (tested: up to 300 nM)”.

B10: COVID19_P10_B10 (scFv, V domains shown)
VH: QVQLVQSGAEVKKPGSSVKVSCKASGYSFSDYHVHWVRQAPGQGLEWVGMIIPRHGGTAYAQKFQGRVTITADESTSTAYMELSSLRSEDTAVYYCAGGSGISTPMDVWGQGTLVTVSS
VL: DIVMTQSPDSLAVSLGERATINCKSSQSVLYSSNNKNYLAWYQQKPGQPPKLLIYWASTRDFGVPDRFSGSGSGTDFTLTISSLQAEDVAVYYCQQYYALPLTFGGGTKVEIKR
In experiment [1], B10 gave a Kd of 46.2 nM, a koff of 0.014 s⁻¹ and a kon of 302000 M⁻¹ s⁻¹. For the same molecule, the binding result in experiment [20] was “no binding (tested: up to 300 nM)”. Besides, in [21], the binding result is listed as “no binding (tested: up to 300 nM)”.

B11: COVID19_P21_B09 (scFv, V domains shown)
VH: QVQLVQSGAEVKKPGSSVKVSCKASGYTFTGHYMHWVRQAPGQGLEWMGIIYPGDSEARYSQKFQGRVTITADESTSTAYMELSSLRSEDTAVYYCAGGSGISTPMDVWGQGTLVTVSS
VL: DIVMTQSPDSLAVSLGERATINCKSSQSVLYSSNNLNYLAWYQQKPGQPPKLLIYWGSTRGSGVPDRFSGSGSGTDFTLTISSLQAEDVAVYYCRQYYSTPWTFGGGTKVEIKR
In experiment [1], B11 displayed a Kd of 3.71 nM, a koff of 0.000207 s⁻¹ and a kon of 55900 M⁻¹ s⁻¹. Further, the binding result in experiment [22] is recorded as “no binding (tested: up to 300 nM)”. In addition, in experiment [23], the binding result was “no binding (tested: up to 300 nM)”.
